Measurements published in PMC6201953.

Legend:
[1] = biological target: HIV-1 HXB2 envelope glycoprotein (Env) (HIV-1 (isolate HXB2)) (UniProt P04578)
[2] = biological target: HIV-1 BG505 envelope glycoprotein (Env) (HIV-1 (isolate BG505)) (UniProt Q2N0S6)
[3] = biological target: HIV-1 HXB2 envelope glycoprotein (Env) (HIV-1 (isolate HXB2)) (UniProt P04578); remark: listed apart in the source
[4] = biological target: HIV-1 YU2 envelope glycoprotein (Env) (HIV-1 (isolate YU2)) (UniProt P35961)
[5] = biological target: HIV-1 ZM651 envelope glycoprotein (Env) (HIV-1 (isolate ZM651))
[6] = biological target: HIV-1 HXB2 envelope glycoprotein (Env) (HIV-1 (isolate HXB2)) (UniProt P04578); remark: listed apart in the source
[7] = biological target: HIV-1 YU2 envelope glycoprotein (Env) (HIV-1 (isolate YU2)) (UniProt P35961); remark: listed apart in the source

Chain of UniProt P35961 (P35961 32-843): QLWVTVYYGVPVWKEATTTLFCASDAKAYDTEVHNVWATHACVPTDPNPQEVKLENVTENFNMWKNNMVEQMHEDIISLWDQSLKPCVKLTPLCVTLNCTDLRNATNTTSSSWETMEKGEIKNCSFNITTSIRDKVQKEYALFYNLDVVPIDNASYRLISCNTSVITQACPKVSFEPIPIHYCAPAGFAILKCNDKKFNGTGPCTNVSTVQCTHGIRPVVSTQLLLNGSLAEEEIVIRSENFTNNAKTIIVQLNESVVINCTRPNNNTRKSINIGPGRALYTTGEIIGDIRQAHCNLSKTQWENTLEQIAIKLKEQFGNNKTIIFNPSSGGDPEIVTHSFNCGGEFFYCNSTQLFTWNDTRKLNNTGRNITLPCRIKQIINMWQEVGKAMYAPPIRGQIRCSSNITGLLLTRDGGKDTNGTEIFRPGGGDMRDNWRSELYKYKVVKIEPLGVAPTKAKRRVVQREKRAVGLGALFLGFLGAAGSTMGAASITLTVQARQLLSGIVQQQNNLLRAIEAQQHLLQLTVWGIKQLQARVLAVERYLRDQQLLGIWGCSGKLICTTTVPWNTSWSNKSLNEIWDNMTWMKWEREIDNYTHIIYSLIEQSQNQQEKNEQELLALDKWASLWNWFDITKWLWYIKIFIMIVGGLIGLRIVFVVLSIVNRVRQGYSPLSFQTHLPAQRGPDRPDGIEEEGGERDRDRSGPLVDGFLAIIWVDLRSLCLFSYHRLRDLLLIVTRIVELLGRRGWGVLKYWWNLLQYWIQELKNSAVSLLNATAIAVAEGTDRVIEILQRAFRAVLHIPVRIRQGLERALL

Env-mediated cell-cell fusion (SRFA), fusion level with 10 μg/mL antibody; the pair said to be blocked is CD4 (on HeLa.CD4-DSP2 cells) with gp120 [1] | Substance | IC50 of neutralisation of HIV-1 pseudovirus (TZM-bl assay) [2] [µg/mL] | IC90 of neutralisation of HIV-1 pseudovirus (TZM-bl assay) [2] [µg/mL] | IC50 of neutralisation of HIV-1 pseudovirus (TZM-bl assay) [3] [µg/mL] | IC90 of neutralisation of HIV-1 pseudovirus (TZM-bl assay) [3] [µg/mL] | IC50 of neutralisation of HIV-1 pseudovirus (TZM-bl assay) [4] [µg/mL] | IC90 of neutralisation of HIV-1 pseudovirus (TZM-bl assay) [4] [µg/mL] | IC50 of neutralisation of HIV-1 pseudovirus (TZM-bl assay) [5] [µg/mL] | IC90 of neutralisation of HIV-1 pseudovirus (TZM-bl assay) [5] [µg/mL] | Env-mediated cell-cell fusion (SRFA), CHO-DSP1 cells with HIV-1 HXB2 Env and HeLa.CD4-DSP2 cells, fusion level at 1 μg/mL (Fig 1D; concentration dependent over 10-1000 ng/mL, Fig 3A) (% of untreated control) [6] | Env-mediated cell-cell fusion (SRFA), fusion level at 260 nM (% of untreated control) [6] | Env-mediated cell-cell fusion (SRFA), CHO-DSP1 cells with HIV-1 YU2 Env and HeLa.CD4-DSP2 cells with CCR5, fusion level at 260 nM (% of untreated control) [7]
53 % of control | VRC03 (antibody) |  |  |  |  |  |  |  |  |  |  | 
 | eCD4-Ig^mim2 (Fc fusion) | 0.258 | 0.83 | 0.0008 | 0.002 | 0.003 | 0.009 | 0.468 | 1.65 | 18 | 2 | 30
